The RNAGym collection of RNA variant scans (doi:10.1073/pnas.2313332121)
This sample holds only a part of the variants without activity.

B1: TPR 5TU (parent)
chain: GGAUCUUCUCGAUCUAACAAAAAAGACAAAUCUGCCACAAAGCUUGAGAGCAUCUUCGGAUGCAGAGGCGGCAGCCUUCGGUGGCGCGAUAGCGCCAACGUUCUCAACUAUGACACGCAAAACGCGUGCUCCGUUGAAUGGAGUUUAUCAUG

Variants of: B1
Test: polymerase ribozyme fitness, log enrichment relative to wild type (log ratio); higher = more active; in vitro selection for triplet polymerase activity
How it was run: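 Mutant libraries for each subunit of a heterodimeric triplet polymerase ribozyme were made by PCR and then transcribed. Each library underwent one round of in vitro selection in triplicate: annealing with a biotinylated primer, the partner subunit and triplets, frozen incubation at −7 °C, gel excision of extended constructs, streptavidin-bead capture and RT-PCR. Input and output libraries were Illumina-sequenced, and only genotypes with ≥10 input reads and ≥1 read per output were kept. Fitness is the logarithm, base 2, of genotype enrichment over wild-type enrichment, computed from inverse-variance-weighted replicate averages.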

Row | Variant | polymerase ribozyme fitness (log ratio)
1 | C54A U55G A107U U109C G117A C118U A121C | ≤ -4.2
2 | G84U G124C G140U U146C | ≤ -4.2
3 | U9G C43A C54A C75G C93G U146A | ≤ -4.2
4 | A3U A24U A66U C93G A107C | ≤ -4.2
5 | G42C C43U C54U A98G A120G | ≤ -4.2
6 | C14A A17C C93U C116G | -2.99
7 | A19U G136C | -3.86
8 | A23C G67A A73U C96U G140C | ≤ -4.2
9 | A23C G48C G68C C99U U101C A122U U144G | ≤ -4.2
10 | U78G C99G C103A U109G | ≤ -4.2
11 | G11A G94U A150U | -0.735
12 | C8U U33A C38U G62A | ≤ -4.2
13 | C14G C57A | -1.52
14 | G71A G88A | ≤ -4.2
15 | C14G C75A G84U | -4.14
16 | U7C A16C C35U C63U A121G G133C | ≤ -4.2
17 | A3U U6G C35G G50U U78G C79U G141U | ≤ -4.2
18 | U56C A64U C93A C95U G133C | ≤ -4.2
19 | G58U C95U | -0.414
20 | C54A C85U C149G G152U | -4.15
21 | C27U A52G G92A C96U G133A | ≤ -4.2
22 | A12U U15A A21U U55A C76U C79A A121U | ≤ -4.2
23 | G140C U144G | -3.51
24 | U55A G84A G143A | -0.776

Row | Variant | polymerase ribozyme fitness (log ratio)
25 | G81A G86C A89U C125U C131U A137G | -4.06
26 | U56A G88A | -3.78
27 | U45A C57A C95U | -2.12
28 | A30U A73U A98U U135G | ≤ -4.2
29 | U56G C85A | -2.05
30 | A22U U55G A73C G86A C116A A142U | ≤ -4.2
31 | C54G A89U C95U A97C | -2.48
32 | U53A C149U | -1.57
33 | U31A G58A U61A G84U A89C | -3.15
34 | G94A G136C | -3.98
35 | G86C G126U C131A | ≤ -4.2
36 | G48C C85U U102G U104A C118U C125A | -4.14
37 | A23G U44G U53G A91C C95U C103A G117A A121C G126A | ≤ -4.2
38 | C35U G50U G83U C87A A115C C118G | ≤ -4.2
39 | A30G A66G C108G | ≤ -4.2
40 | A39U G141U | -1.56
41 | A12C G46U A113U C118U | -3.95
42 | C51G U56A G68A C93U A97G U104G G143A U146A | ≤ -4.2
43 | A21U A30G | -3.62
44 | A40G G80C U90G | ≤ -4.2
45 | G58C G126U U145G | -3.82
46 | A52C G67A G74U G86U C93U A115G | ≤ -4.2
47 | C5U C85G | -1.7
48 | A20U A30G C38U G59C A60C A73U G92U | ≤ -4.2

Row | Variant | polymerase ribozyme fitness (log ratio)
49 | U4C U56G C63U C93G | -3.11
50 | A29U U31G C72U G83C | ≤ -4.2
51 | A73G G80U G94U U102C U127C | ≤ -4.2
52 | U31G C57G G88U | ≤ -4.2
53 | C5G U90G C93A C116G A142C | ≤ -4.2
54 | G58A C85U A106G | -0.0661
55 | U53G C54G C85A U134A | ≤ -4.2
56 | A12G A21C A23G C76G C116G G133A | ≤ -4.2
57 | A22C A40U C54U G94A | -0.982
58 | C63U C75A G86A A89U A106U U134G | ≤ -4.2
59 | A30C G92A U104A A106C C108A | ≤ -4.2
60 | A47U C114U | -1.72
61 | C5G C32A C57U C99U | ≤ -4.2
62 | G94C C105G C116A | -2.89
63 | U9A A26U G92U A142U | ≤ -4.2
64 | A20C A28U C93U C129U G143A | ≤ -4.2
65 | A37U U146G | -2.19
66 | A24U C32G U55G U78A U104G | ≤ -4.2
67 | U13C C14G C57A U101G | -1.23
68 | C18G U55A A98G A106G G112U A120U | -3.87
69 | C18G G59U G84U | -2.51
70 | C27U G65C A66C A73U C93A C108G C129G | -3.81
71 | U6A G50A A89U G92U A137G | -3.34
72 | A19U C87U | -0.845

Row | Variant | polymerase ribozyme fitness (log ratio)
73 | A40C C85G | -1.95
74 | A24U C57U C69G G84A C87A A115C | ≤ -4.2
75 | A22U G92C C93U A119G | -3.96
76 | G80C U90G | ≤ -4.2
77 | G58A G86A | -1.63
78 | C99A A120C U148G | ≤ -4.2
79 | A23G C38U U61A C69A C76U C96G C116U G117U | ≤ -4.2
80 | G81U G84U | -2.19
81 | A19U A91C C129A | ≤ -4.2
82 | A24G G50C C72U C87G U111C | ≤ -4.2
83 | A3U G48C C51U C57U C95A A115C | ≤ -4.2
84 | A22C G42U A49G C51U G92A U130G | ≤ -4.2
85 | A19U C54A G70A U82A U134G U139A | ≤ -4.2
86 | A40U G50C C57U U82A | -2.79
87 | C5G A41C U55A G58A A60G | -1.54
88 | A17G A21G A52U U56A A91G | -4
89 | C32A A40U G62U C85G U146A | ≤ -4.2
90 | G34U A47G C57G G68A U102A | ≤ -4.2
91 | A21C C93A | -2.02
92 | U4A C8U A16U A40C U53A C57U C87A A97U U145G | ≤ -4.2
93 | C18G C116U | -0.663
94 | A19C C27A A39C C79U C93A U102G G117C | -4.01
95 | G94U A98U C99G A147G | -3.16
96 | A19U U53C C87G | ≤ -4.2

Row | Variant | polymerase ribozyme fitness (log ratio)
97 | A49C C57U G74U U90A C93G C95U C103G A138C | ≤ -4.2
98 | A22C C35G U44A A60G C76A C95U G128A A150C U151G | ≤ -4.2
99 | A3C G68U C93A | ≤ -4.2
100 | C38U C57G C75U G86A U148A | ≤ -4.2
101 | A37C A41U A52C C118A | -3.42
102 | G11C A19G A52G G68C A97G C132A U134C U144A | ≤ -4.2
103 | A73G G126A | -0.377
104 | C72G A147U | -3.16
105 | A41C C57A C99G U104C G126C U144G | -3.09
106 | U13G A28U G71A G88C | ≤ -4.2
107 | A12C A20C A26G | ≤ -4.2
108 | A21U A64C U145G | ≤ -4.2
109 | A37C C76A | -3.34
110 | A52U G74A G80C C95U A147C | ≤ -4.2
111 | C35U A49G U53A C87U A89C C95U C132A A142C | ≤ -4.2
112 | A17G A52U A64U G65A G86C A107C G128A | ≤ -4.2
113 | A21G C85A | -1.12
114 | U7C G50U C87A U90A A106C | ≤ -4.2
115 | C125G U127A | -3.68
116 | U4A C76G A91U A115U | ≤ -4.2
117 | C5A C54A C57A G58A G68A A89U C95G | ≤ -4.2
118 | A47C A150U | -0.247
119 | U55A G141C | -0.199
120 | G50A C75U A91U A150C | ≤ -4.2

Row | Variant | polymerase ribozyme fitness (log ratio)
121 | A52C U56C C103G G143C | -4.12
122 | U44A C79U A89G U104A A107G | ≤ -4.2
123 | C96A A106C | -0.591
124 | C5A A24C G48U G65C C87U C99U A121G | ≤ -4.2
125 | A49G A52C U56A A91G G92A A121G | -3.9
126 | A73U C87U G92A | 0.224
127 | U33G C54U C96G A147U | -3.24
128 | C10G A64C C76A G92C U135A A138G U151G | ≤ -4.2
129 | U33G A49C C75G G92A U101G C105A | -4.15
130 | A30G A39U A52G U55G | -4.08
131 | G34U C99G A106U U127A C132U U139C | ≤ -4.2
132 | C5A G92C | -1.76
133 | U31A A49C C99G C108G | ≤ -4.2
134 | A39U U55G G58U U78G C85U U90C C105A G136U A142C | ≤ -4.2
135 | A52C C54U U55G G67C G71U C85U G143C | ≤ -4.2
136 | C35G G58C C75G C76U A89U C95G C108A A137C | ≤ -4.2
137 | A20C A52C C79G | ≤ -4.2
138 | G74A A91C A115U G141A A147C U148G | ≤ -4.2
139 | C35U A37C U55A C95U | -1.32
140 | U77A G88U C103G U151C | ≤ -4.2
141 | A24U A60G C79G C96G U109C | ≤ -4.2
142 | A20U C35U C95A A97G C99A C105U A138G | ≤ -4.2
143 | U4C A20U A29U G46C C54U C85U C116U | ≤ -4.2
144 | A60C G65U C132A | -4.19

Row | Variant | polymerase ribozyme fitness (log ratio)
145 | U45G C116U | 0.00932
146 | A29U C93G | ≤ -4.2
147 | A37C G86U A120U U146G | -3.9
148 | C27G U45G | -3.87
149 | A52C U55A A91G U111A U139G | ≤ -4.2
150 | A107G A121U | -4.18
151 | U13A A20U C35A G50A G83C C118G A119U C132U | ≤ -4.2
152 | C5A C93U C105U C149G | -3.96
153 | C18G A41U A47C A49G G86A U104G | -3.44
154 | A30G C38A C57A G58C U78G A97G U101C U102G | ≤ -4.2
155 | A26C A41G A47C C69G G83A C93U G124U | ≤ -4.2
156 | U82C C96G A120U U127G | -2.72
157 | A24G G25A G84A C125G G152A | ≤ -4.2
158 | A60C U61A | -2.27
159 | C38A C76G G92C | ≤ -4.2
160 | G71A A107U G133C | ≤ -4.2
161 | A29C A37G G65C C75G U77A A97G C118U C123U | ≤ -4.2
162 | A16G G34C C35A C54A C93A | ≤ -4.2
163 | U15G A17U | -0.367
164 | A28C C57A A66U G71A C87A U102G A138C | ≤ -4.2
165 | C75G U78C C99U C132G | ≤ -4.2
166 | U7A A22C C85U | -4.04
167 | A16C U31A U104G A142C | -2.77
